The target in test [1] is T1, human BCMA on HEK293A/human BCMA cells (human, UniProt Q02223 1-184).
T1 sequence: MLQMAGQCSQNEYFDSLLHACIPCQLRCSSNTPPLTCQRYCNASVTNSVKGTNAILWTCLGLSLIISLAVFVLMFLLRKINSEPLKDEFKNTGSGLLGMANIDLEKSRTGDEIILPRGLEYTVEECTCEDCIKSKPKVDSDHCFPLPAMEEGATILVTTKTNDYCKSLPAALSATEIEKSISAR
The test can be described thus: flow cytometry on HEK293A/human BCMA cells. The procedure:
(§1) The anti-BCMA antibody's binding capability to cell surface BCMAs was tested by FACS. Briefly, HEK293A/human BCMA cells, HEK293A/monkey BCMA cells and HEK293A/mouse BCMA cells, as generated in Example 1, were collected, digested with trypsin, and subjected to centrifugation at 300 g for 5 min. The cells were suspended in PBS, and subjected to centrifugation again. The cells were re-suspended in PBS with 2% FBS at the cell density at 4×10⁶/ml, and 50 μl cells were seeded onto a U-bottom plate. […] The plate was washed with 2% FBS-PBS for three times, added with 50 μl PE-labeled goat-anti-human IgG (H+L) (1: 500), and incubated at room temperature for 45 min. The plate was washed with 2% FBS-PBS again for three times, and added with 150 μl 2% FBS-PBS to suspend the cells. The plate was measured for cell fluorescence using a cytometry, and the data was processed with FlowJo and analyzed with GraphPad.
(§2) Following the protocol of Example 6, the bispecific antibodies of the disclosure were tested for their binding capability to the HEK293A/human BCMA cells, HEK293A/monkey BCMA cells, and HEK293A/mouse BCMA cells as generated in Example 1.

For test [2], the target named is T2, CD3 on Jurkat cells (UniProt P04234 22-171; P07766 23-207).
T2 construct: whole, on cells
Put plainly: flow cytometry on Jurkat cells. The procedure:
(§3) Jurkat cells were collected, centrifuged at 300 g for 5 min, and suspended in PBS. After another centrifugation, the cells were suspended in 2% FBS-PBS at the cell density of 3×10⁶/ml, and […] were plated onto a U-bottom plate. The plate was added with 50 μl serially diluted anti-CD3 antibodies of the disclosure in 2% FBS-PBS (4-fold dilution, starting at 20 μg/ml), and incubated at room temperature for 1 h. The plate was washed with 2% FBS-PBS for three times, added with 50 μl PE-labeled goat-anti-human IgG (H+L) (1: 500), and incubated at room temperature for 45 min. The plate was washed with 2% FBS-PBS again for three times, and added with 150 μl 2% FBS-PBS to suspend the cells. The plate was measured for cell fluorescence using a cytometry, and the data was processed with FlowJo and analyzed with GraphPad.
Following the protocol of Example 11, the bispecific antibodies of the disclosure were tested for their binding capability to Jurkat cells.

Test [3] concerns the target T3, BCMA-his protein (Cat #: BCA-H522y, ACRO) (human, UniProt Q02223 1-54).
T3 construct: Bought recombinant protein; the construct is most likely only a soluble part of it; also called BCMA protein; human BCMA
T3 sequence: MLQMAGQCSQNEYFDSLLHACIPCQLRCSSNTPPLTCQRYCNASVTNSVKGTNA
The test can be described thus: SPR (BIAcore 8K), protocol of Example 5. On the procedure: (§4) Following the protocols in Example 5 and Example 10, the bispecific antibodies of the disclosure were tested for their binding affinity to CD3D&E and human BCMA.

Test [4] addresses T4, CD3D&E protein (Cat #: CT038-H2508H, Sino Biological) (human, UniProt P04234 22-105; P07766 23-126).
T4 construct: Bought complex of the delta and epsilon chains; also called CD3D&E complex; human CD3D&E complex
Put plainly: SPR (BIAcore 8K), protocol of Example 10. The procedure:
as §4

Test [5] concerns the target T5, mouse BCMA on HEK293A/mouse BCMA cells (mouse, UniProt O88472 1-185).
T5 sequence: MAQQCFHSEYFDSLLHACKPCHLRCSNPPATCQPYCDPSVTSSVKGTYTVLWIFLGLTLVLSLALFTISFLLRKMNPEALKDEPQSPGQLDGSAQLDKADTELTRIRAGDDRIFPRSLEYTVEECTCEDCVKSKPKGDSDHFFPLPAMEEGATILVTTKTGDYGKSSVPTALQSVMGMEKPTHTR
The test can be described thus: flow cytometry on HEK293A/mouse BCMA cells [continued) E]. The procedure: as §1, §2

The target of test [6] is T3, BCMA-his protein (Cat #: BCA-H522y, …). Put plainly: ELISA, coated BCMA protein. On the procedure: Briefly, an ELISA plate was coated with 100 μl 1 μg/ml BCMA protein (Cat #: BCA-H522y, ACRO) in PBS overnight at 4° C. Then, the plate was blocked with 250 μl PBST with 4% skimmed milk at room temperature for 1 h. […] The negative control well was added with PBST instead of the antibody. The plate was washed with PBST for three times, added with 100 μl HRP conjugated goat anti-human IgG (1:7000, Cat #: 31413, thermofisher), and incubated at room temperature for 1 h. The plate was washed again with PBST for four times, added with 100 μl freshly prepared TMB (Cat #: 555214, BD, USA), and left still for color development, which was terminated with 50 μl 10% H₂SO₄. The absorbance was read at 450 nm, and the data was processed and analyzed using GraphPad.
(§5) The purified bispecific antibodies were tested for their binding capability to recombinant human CD3 and human BCMA proteins by ELISA, following the protocols in Example 4 and Example 9.

Test [7] has as its target T4, CD3D&E protein (Cat #: CT038-H2508H, …). Put plainly: ELISA, coated CD3D&E. On the procedure: as §5
The target of test [8] is monkey BCMA on HEK293A/monkey BCMA cells (monkey, UniProt Q02223 1-184 (human entry)). Put plainly: flow cytometry on HEK293A/monkey BCMA cells. The procedure:
as §1, §2

Test [9] has as its target T4, CD3D&E protein (Cat #: CT038-H2508H, …). The test can be described thus: SPR (BIAcore 8K), antibody captured by anti-human Fc, CD3D&E as analyte. The procedure: Briefly, the mouse anti-human Fc antibodies were coupled to a CM5 biosensor chip. The anti-CD3 antibodies of the disclosure in the HBS-EP buffer (Cat #: BR-1006-69, GE Life Sciences) at the concentration of 1 μg/ml was flowed through the chip, where about 100 RU of the antibodies were captured by the mouse anti-human Fc antibodies. Serially diluted CD3D&E molecules (Cat #: CT038-H2508H, Sino Biological) in the HBS-EP buffer (Cat #: BR-1006-69, GE Life Sciences) (2-fold dilution starting at 20 μg/ml) were respectively flowed through the chip. Chip regeneration was performed with 3 M MgCl₂.

The target is the same in test [10]. The test can be described thus: ELISA, coated CD3D&E. The source holds these as a separate data set.
The target of test [11] is T2, CD3 on Jurkat cells. The test can be described thus: flow cytometry on Jurkat cells. The procedure:
as §3
The source holds these as a separate data set.

The values below come from patent publication US20230348630A1 (BEIJING MABWORKS BIOTECH, published 2023).

Residue numbers refer to the chain shown, from its start. Names and notes keep the numbering of the source. Like-named read-outs stand apart in the source and are kept apart here.

T4 sequence (P04234 22-105, form in doubt, chain 1 of 2): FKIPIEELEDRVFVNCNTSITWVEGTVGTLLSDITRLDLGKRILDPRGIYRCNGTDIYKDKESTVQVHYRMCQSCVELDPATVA
T4 sequence (P07766 23-126, form in doubt, chain 2 of 2): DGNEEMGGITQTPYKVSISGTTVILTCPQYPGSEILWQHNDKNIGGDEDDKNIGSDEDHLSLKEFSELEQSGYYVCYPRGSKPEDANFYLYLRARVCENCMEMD
monkey BCMA on HEK293A/monkey BCMA cells, sequence (Q02223 other isoform, or with tags, fused parts or gaps): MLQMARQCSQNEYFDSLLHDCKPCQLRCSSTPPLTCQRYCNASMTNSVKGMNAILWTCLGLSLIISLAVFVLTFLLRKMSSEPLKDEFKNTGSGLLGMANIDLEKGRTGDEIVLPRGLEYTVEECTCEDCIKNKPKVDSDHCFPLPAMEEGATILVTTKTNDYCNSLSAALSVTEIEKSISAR
T2 sequence (P04234 22-171, chain 1 of 2): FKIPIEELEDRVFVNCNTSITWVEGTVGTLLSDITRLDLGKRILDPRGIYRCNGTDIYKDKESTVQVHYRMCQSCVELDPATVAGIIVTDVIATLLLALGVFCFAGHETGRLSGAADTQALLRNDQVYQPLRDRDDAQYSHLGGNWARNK
T2 sequence (P07766 23-207, chain 2 of 2): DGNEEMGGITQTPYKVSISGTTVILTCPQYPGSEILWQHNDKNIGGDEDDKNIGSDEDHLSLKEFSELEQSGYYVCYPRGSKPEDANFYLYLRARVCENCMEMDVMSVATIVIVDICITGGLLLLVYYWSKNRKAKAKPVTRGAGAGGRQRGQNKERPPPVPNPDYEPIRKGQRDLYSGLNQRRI

B1: anti-CD3/BCMA bispecific antibody MBS305-H1-KIH (bispecific antibody, human IgG1, kappa, L234A L235A, N297A)
heavy 1: QVQLVQSGAEVKKPGASVKVSCKASGYTFTNHIIHWVRQAPGQGLEWMGYINPYPGYHGYNDKFSGRATMTSDTSTSTVYMELSSLRSEDTAVYYCARDGYYRDQDVLDYWGQGTLVTVSSASTKGPSVFPLAPSSKSTSGGTAALGCLVKDYFPEPVTVSWNSGALTSGVHTFPAVLQSSGLYSLSSVVTVPSSSLGTQTYICNVNHKPSNTKVDKKVEPKSCDKTHTCPPCPAPEAAGGPSVFLFPPKPKDTLMISRTPEVTCVVVDVSHEDPEVKFNWYVDGVEVHNAKTKPREEQYASTYRVVSVLTVLHQDWLNGKEYKCKVSNKALPAPIEKTISKAKGQPREPQVYTLPPSREEMTKNQVSLSCAVKGFYPSDIAVEWESNGQPENNYKTTPPVLDSDGSFFLVSKLTVDKSRWQQGNVFSCSVMHEALHNHYTQKSLSLSPGK
light 1: not shown
heavy 2: QVQLVQSGAEVKKPGASVKVSCKASGYTFTNHIIHWVRQAPGQGLEWMGYINPYPGYHGYNDKFSGRATMTSDTSTSTVYMELSSLRSEDTAVYYCARDGYYRDQDVLDYWGQGTLVTVSSGGGGSGGGGSGGGGSGGGGSDIQMTQSPSSLSASVGDRVTITCKASQDISQYLNWYQQKPGKAPKLLIYYTSGLHPGVPSRFSGSGSGTDFTFTISSLEPEDEATYYCQQGYALPWTFGQGTKLTAKRGGGGSGGGGSGGGGSEVQLVESGGGLVQPGRSLRLSCAASGFTFSDYTMHWVRQAPGKGLEWVSGISWNTGTIGYADSVKGRFTISRDNAKKSLYLQMNSLRAEDTALYYCAKDNSGYGHYYFGMDVWGQGTTVTVASASTKGPSVFPLAPSSKSTSGGTAALGCLVKDYFPEPVTVSWNSGALTSGVHTFPAVLQSSGLYSLSSVVTVPSSSLGTQTYICNVNHKPSNTKVDKKVEPKSCDKTHTCPPCPAPEAAGGPSVFLFPPKPKDTLMISRTPEVTCVVVDVSHEDPEVKFNWYVDGVEVHNAKTKPREEQYASTYRVVSVLTVLHQDWLNGKEYKCKVSNKALPAPIEKTISKAKGQPREPQVYTLPPSREEMTKNQVSLWCLVKGFYPSDIAVEWESNGQPENNYKTTPPVLDSDGSFFLYSKLTVDKSRWQQGNVFSCSVMHEALHNHYTQKSLSLSPGK
light 2: not shown
For the molecule B1, the EC50 in test [1] is 0.221 µg/mL; in [2], 0.00173 µg/mL; in [6], 0.0117 µg/mL; in [7] it was 0.0468 µg/mL; in test [8] it was 0.337 µg/mL. The “EC50 (read off the curve)” value in test [2] was about 2 µg/mL. Besides, the values for the Kd in [3] and in test [4] were 0.168 nM and 8.09 nM, respectively. The binding result in test [5] is given as “no binding (tested: about 30000 ng/ml (LOG10 about 4.5))”.

B2: anti-CD3/BCMA bispecific antibody MBS305-H2-KIH (bispecific antibody, human IgG1, kappa, L234A L235A, N297A)
heavy 1: B1 heavy 1
light 1: not shown
heavy 2: B1 heavy 2 with S294D, Y296F, T297A, S316T, T319S, T321S, I322V, N364R, F372Y
light 2: not shown
Consider B2, for which the EC50 in [1] turned out to be 0.285 µg/mL; in test [2] it was 0.00328 µg/mL; in [6] it was 0.0124 µg/mL; in [7] it was 0.141 µg/mL; in [8], 0.373 µg/mL. In addition, the Kd is 0.206 nM in test [3] and 256 nM in test [4]. Also, the binding result in test [5] was “no binding (tested: about 30000 ng/ml (LOG10 about 4.5))”.

B3: anti-CD3/BCMA bispecific antibody MBS305-M-KIH (bispecific antibody, human IgG1, kappa, L234A L235A, N297A)
heavy 1: B1 heavy 1
light 1: not shown
heavy 2: B1 heavy 2 with S294D, D295S, T297S, T319S, T321S, I322L, N364R, F372Y
light 2: not shown
B3: the EC50 in test [1] came out at 0.199 µg/mL; in test [2], 0.00106 µg/mL; in test [6], 0.0137 µg/mL; in [7], 0.089 µg/mL; in test [8], 0.23 µg/mL. The “EC50 (read off the curve)” value in [2] was about 1 µg/mL. For the same molecule, the Kd in test [3] is 0.105 nM; in [4] it was 37.9 nM. In [5], the binding result is on record as “no binding (tested: about 30000 ng/ml (LOG10 about 4.5))”.

B4: anti-CD3D&E antibody D8E5, full-length human IgG1 (L234A/L235A/N297A)/kappa (antibody, V domains shown)
VH: EVQLVESGGGLVQPGRSLRLSCAASGFTFDSYSMHWVRQAPGKGLEWVSGISWNSGSLGYADSVKGRFTISRDNAKKSLYLQMNSLRAEDTALYYCAKDRSGYGHYYYGMDVWGQGTTVTVAS
VL: EIVMTQSPATLSVSPGERATLSCRASRSVSLNVAWYQQKPGQAPRLLIYGASTKYTGIPARFSGSGSGTEFTLTISSLQSEDFAVYYCQQYINWPLTFGGGTKVEIKR
For the molecule B4, the Kd in [9] came to 30 nM. The figures for the EC50 in test [10] and in test [11] were 0.00816 µg/mL and 0.0411 µg/mL, respectively.

B5: anti-CD3D&E antibody 7-1A12, full-length human IgG1 (L234A/L235A/N297A)/kappa (antibody, V domains shown)
VH: B4 VH with D30S, S31D, S33T, S55T, S57T, L58I, R100N, Y108F
VL: B4 VL with R27Q, L31R, K54R, Y55Q, Q90S, T97Q
In turn, B5 displayed a dissociation constant (Kd) in test [9] of 6.54 nM. Moreover, the EC50 in test [10] came out at 0.00402 µg/mL; in test [11], 0.119 µg/mL.
